Literature values in publication PMC6430685.

Biological target: BAX (Homo sapiens) (UniProt Q07812)
Sequence (Q07812 whole entry): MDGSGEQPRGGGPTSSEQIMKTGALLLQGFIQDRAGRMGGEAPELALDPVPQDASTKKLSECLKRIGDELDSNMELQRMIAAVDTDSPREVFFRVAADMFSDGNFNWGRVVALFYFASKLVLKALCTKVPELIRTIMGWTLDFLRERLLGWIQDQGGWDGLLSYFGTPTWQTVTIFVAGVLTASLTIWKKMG

Sequence of vMIA (P16778 23-487): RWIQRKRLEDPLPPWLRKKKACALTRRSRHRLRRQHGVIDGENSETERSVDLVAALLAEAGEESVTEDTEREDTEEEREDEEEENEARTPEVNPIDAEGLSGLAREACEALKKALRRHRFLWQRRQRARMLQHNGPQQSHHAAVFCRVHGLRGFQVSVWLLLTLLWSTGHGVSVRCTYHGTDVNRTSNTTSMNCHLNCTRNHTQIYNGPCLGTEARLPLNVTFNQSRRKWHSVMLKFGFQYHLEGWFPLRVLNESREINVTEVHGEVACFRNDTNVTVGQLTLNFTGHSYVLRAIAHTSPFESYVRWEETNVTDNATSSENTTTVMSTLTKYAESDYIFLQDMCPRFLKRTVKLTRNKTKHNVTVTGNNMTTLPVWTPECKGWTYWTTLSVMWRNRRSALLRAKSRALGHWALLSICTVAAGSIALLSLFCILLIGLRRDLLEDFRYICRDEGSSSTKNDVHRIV

**Q.** Which Kd does the source give for vMIA (from UniProt P16778) here?
**A.** 0.14 µM
